Patent publication US20210187071A1, “COMPOSITIONS COMPRISING MDA-7/IL-24 PROTEIN AND METHODS OF USE” (VIRGINIA COMMONWEALTH UNIVERSITY, priority 2017, published 2021)
Entries after “also recorded” stand apart in the source; their conditions may differ. Where two headings read alike, the source gives them in different places.

Key:
PC3-ML cells = conditions: for bone metastasis (BLI signal / luciferase intensity): MDA-7/IL-24 protein 5 mg/kg tail vein, 6 doses over three weeks, vs untreated control; for survival: MDA-7/IL-24 protein 5 mg/kg, 6 doses; for toxicity in animals: delivered repeatedly systemically in mice
Description: In vivo Metastasis Studies: All animal studies were approved by the Institutional Animal Care and Use Committee (Virginia Commonwealth University). For experimental bone metastasis assays, 6-8-week-old male athymic nude mice (purchased from Harlan, USA) were injected with 1×10^5 PC3-ML cells stably expressing firefly luciferase gene through an intracardiac route. For determining the therapeutic activity of MDA-7/IL-24 protein, mice received an intravenous injection of recombinant protein (5 mg/kg), one day after implantation of cells. Animals were treated with therapeutics for a total of 6 times (2× a week for first 3 weeks). […] Image of the bone region was monitored by a BLI (bioluminescence imaging) method using an IVIS® imaging system (15, 19, 20).
In this model, stable luciferase expressing PC3-ML cells were injected in male athymic nude mice through an intracardiac route to produce bone metastases. The expansion, invasion, and migration of PC3-ML cells were monitored by IVIS® imaging (15, 20, 23). […] BLI imaging followed development of metastatic lesions in bone. […] To determine the effect of MDA-7/IL-24 on primary bone marrow in animals, cells from the bone cavity were isolated and treated with His-MDA-7 at different doses in vitro.

[1] = system: TRAP, Cathepsin K (CTSK), and Calcitonin Receptor (CTR) genes; experiment: RQ-PCR of osteoclastic genes in RAW 264.7 cells; assay type: cell-based, mouse; conditions: 5 days, MDA-7/IL-24 protein 10 μg/mL, RANKL 100 ng/mL
Description: Real Time q-PCR: Total RNA was isolated from cells with the RNA isolation kit from Qiagen (Valencia, Calif., USA). RQ-PCR was performed using TaqMan probes and master mix from Applied Biosystems (Foster City, Calif., USA). Data were analyzed using the graph pad prism software.
To investigate the effect of MDA-7/IL-24 on osteoclast differentiation, bone marrow cells from athymic nude mice were isolated and induced to differentiate with RANKL in the presence or absence of MDA-7/IL-24 protein. Five days after induction with RANKL, osteoclast differentiation was measured by counting multinucleated cells. Cells positively stained for TRAP and multinucleated cells were quantified under a light microscope (FIG. 9A). […] To provide molecular insights into this inhibitory effect, we used a mouse macrophage cell line RAW 264.7, which can be induced to differentiate into osteoclasts when incubated with RANKL (32). Using RAW 264.7 cells, different genetic markers associated with osteoclastic differentiation were monitored (33). RAW 264.7 cells were treated with RANKL or MDA-7/IL-24 alone and in combination. RNA was isolated after 5 days of treatment and real time PCR quantified expression of TRAP, Cathepsin K (CTSK), and Calcitonin Receptor (CTR) genes. RANKL induced the expression of TRAP, CTSK and CTR gene expression. […]

PC cells = experiment: Colony formation (clonal) assay in PC cell lines; assay type: cell-based; conditions: 200 cells plated, colonies counted 2 weeks after treatment
Description: MTT Cell Proliferation and Clonal Assays: Cell proliferation assays were done as described previously (25). Briefly, 2,000 cells were seeded in each well of a 96-well plate and allowed to attach overnight. Cells were treated with complete media in the presence or absence of different concentrations of MDA-7/IL-24 protein. At appropriate time points, cells were further incubated with MTT (3-(4, 5-di methyl thiazol-2-yl)-2, 5 diphenyl tetrazolium bromide) reagents. Finally, DMSO was applied to dissolve the blue salt and the OD was measured at 560 nm (25). For determining long-term effects, colony formation (cloning) assays were performed as described earlier (26). Briefly, 200 cells were plated and allowed to grow in the presence or absence of MDA-7/IL-24 for an additional 15 days. Culture media was replaced with fresh media containing MDA-7/IL-24 protein once a week, two times in total.

p27, GRP78, and Beclin-1 = experiment: Western blotting of downstream MDA-7/IL-24 signaling molecules in PC3-ML cells; assay type: cell-based; conditions: western blot, vs untreated control
Excerpt: (§1) Western Blotting: Standard protocols were followed for Western blotting assays (24, 27). The primary antibodies used were pAkt, Akt, pGSK3β, GSK3β, NFATc1, cyclin D1 (Cell Signaling Technology, Danvers, Mass., USA) and EF1α (Abeam, Cambridge, United Kingdom). Appropriate secondary antibodies were purchased from Sigma-Aldrich, Inc. St. Louis, Mo., USA).
After purification, the quality of the purified protein was confirmed using anti-MDA-7 antibody by western blotting (FIG. 1B). To confirm biological activity, PC3-ML cells were treated with MDA-7/IL-24 protein, and anti-proliferative and potential molecular changes were evaluated by MTT assays and western blotting analyses, respectively (FIGS. 1C and 1D). […] Next, to evaluate the long-term effect of MDA-7/IL-24 on cell proliferation, colony formation (clonal) assays were performed in an assortment of PC cell lines.

[2] = system: Akt signaling (p-Akt, p-GSK3β, NFATc1, Mcl-1); experiment: Western blotting of Akt signaling cascade in RAW 264.7 cells; assay type: cell-based, mouse
Excerpt: as §1
MDA-7/IL-24 Regulates AKT Signaling in Mouse Macrophage cells: To determine whether MDA-7/IL-24 protein exerts any effect on Akt activation in our model system, RAW 264.7 cells were treated with MDA-7/IL-24 protein in the presence or absence of RANKL. It was observed that RANKL induces Akt activation in RAW 264.7 cells, and this activated Akt was suppressed by MDA-7/IL-24 protein (FIGS. 3A and 11A). […] The effect of Akt inhibition by a PI3K kinase inhibitor (LY294002) was also studied in the signaling cascade involving NFAT, Mcl-1, and Akt (FIGS. 3B and 11B).
A constitutively active form of Akt (MYR-Akt) was also tested. Cells were transfected with MYR-Akt and treated with MDA-7/IL-24.

[3] = listed as recombinant MDA-7/IL-24

B1: MDA-7/IL-24 protein: Recombinant His-tagged MDA-7/IL-24 protein purified on Ni-NTA from supernatant of IM-PHFA cells infected with Ad.5-His-mda-7 (protein)
chain: QEFHFGPCQVKGVVPQKLWEAFWAVKDTMQAQDNITSARLLQQEVLQNVSDAESCYLVHTLLEFYLKTVFKNYHNRTVEVRTLKSFSTLANNFVLIVSQLQPSQENEMFSIRDSAHRRFLLFRRAFKQLDVEAALTKALGEVDILLTWMQKFYKL
- bone metastasis (BLI signal / luciferase intensity) (PC3-ML cells): significantly fewer metastatic lesions
- bone metastasis (BLI signal / luciferase intensity) (PC3-ML cells; listed as MDA-7/IL-24): significantly less evidence of metastasis; also recorded: a significant decrease in metastasis; also recorded: significant inhibition in luciferase intensity
- bone metastasis (BLI signal / luciferase intensity) (PC3-ML cells; [3]): significantly less metastatic lesions in their femurs; also recorded: significantly reduced the occurrence of bone metastasis
- survival (PC3-ML cells): enhancement of survival
- survival (PC3-ML cells; listed as MDA-7/IL-24): increased
- toxicity in animals (PC3-ML cells): non-toxic
- toxicity in animals (PC3-ML cells; [3]): without promoting toxicity
- development of lung metastases (PC3-ML cells; six doses of MDA-7/IL-24 protein 5 mg/kg): suppressed development of lung metastases
- RANKL-induced TRAP, CTSK and CTR gene expression [1]: attenuated RANKL-induced regulation of these genes
- proliferation of PC cells (colony formation) (PC cells): significantly reduced the proliferation of PC cells
- levels of p27, GRP78, and Beclin-1 (p27, GRP78, and Beclin-1): Significant increases; also recorded: up-regulation of expression
- RANKL-induced Akt activation ([2]; MDA-7/IL-24 protein 10 μg/mL, RANKL 100 ng/mL): suppressed
- Phosphor-GSK3β, NFATc1, and Mcl-1 expression increased by constitutively active Akt ([2]; RAW 264.7 cells transfected with MYR-Akt): inhibited
- Mcl-1 expression ([2]; RAW 264.7 cells, MDA-7/IL-24 treatment): profoundly inhibited Mcl-1 expression
